T1: human GITR, membrane bound (on activated human T cells or on 3A9-hGITR cells) (human, UniProt Q9Y5U5 26-241)
T1 construct: also called huGITR; TNFRSF18
T1 sequence: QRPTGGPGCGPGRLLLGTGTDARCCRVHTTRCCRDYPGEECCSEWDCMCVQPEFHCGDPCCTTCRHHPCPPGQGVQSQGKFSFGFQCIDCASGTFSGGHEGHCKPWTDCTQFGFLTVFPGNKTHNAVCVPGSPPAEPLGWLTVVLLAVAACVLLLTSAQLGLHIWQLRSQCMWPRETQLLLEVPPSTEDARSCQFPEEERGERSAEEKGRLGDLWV

T2: cynomolgus GITR, membrane bound (on activated cynomolgus T cells) (cynomolgus monkey, UniProt Q9Y5U5 26-241 (human entry))
T2 construct: also called cyno GITR
T2 chain: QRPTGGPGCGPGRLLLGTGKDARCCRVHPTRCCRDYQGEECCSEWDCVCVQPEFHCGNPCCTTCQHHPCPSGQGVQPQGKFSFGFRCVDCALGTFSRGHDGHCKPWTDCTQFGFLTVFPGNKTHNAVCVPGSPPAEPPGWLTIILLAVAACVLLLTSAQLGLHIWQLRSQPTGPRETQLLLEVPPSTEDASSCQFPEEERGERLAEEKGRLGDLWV

T3: recombinant human GITR/Fc (rHGITR/Fc, R&D systems CAT #689-GR) (human, UniProt Q9Y5U5 26-161, limits assumed)
T3 construct: Bought; also called soluble GITR
T3 chain: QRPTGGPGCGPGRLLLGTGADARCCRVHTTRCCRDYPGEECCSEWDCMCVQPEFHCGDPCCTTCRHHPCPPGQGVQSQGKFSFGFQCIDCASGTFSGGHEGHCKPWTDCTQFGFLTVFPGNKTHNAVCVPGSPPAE

T4: mouse GITR (mouse, UniProt O35714 20-228)
T4 construct: whole, on cells; also called muGITR
T4 sequence (looked up): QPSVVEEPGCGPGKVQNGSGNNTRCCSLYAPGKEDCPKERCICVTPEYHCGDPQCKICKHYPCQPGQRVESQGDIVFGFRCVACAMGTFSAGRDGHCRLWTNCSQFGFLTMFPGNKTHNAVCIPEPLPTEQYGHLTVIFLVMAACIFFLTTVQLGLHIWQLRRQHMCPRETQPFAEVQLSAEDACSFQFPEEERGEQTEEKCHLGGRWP


How the values were obtained:
[1] = biological target: T1, human GITR, membrane bound (on …); assay: FACS on activated human T cells
Protocol: (§1) Peripheral Blood Mononuclear Cells (PBMCs) isolated from human or cynomolgus monkey were activated with plate-coated anti-CD3 antibody (Clone: UCHT1 for human T cell activation; Clone: SP34 for cynomolgus T cell activation; both from BD Biosciences) and soluble anti-CD28 antibody (Clone:CD28.2 for both human and cynomolgus monkey, BD Biosciences) for 4 days (human)/or 5 days (cynomolgus monkey). The cells were tested for GITR mAb binding in a fluorescence-activated cell sorting (FACS)-based assay using a phycoerythrin (PE)-conjugated anti-human IgG antibody (Jackson ImmunoResearch). The samples were analyzed on a BD FACS Canto Flow Cytometer.

[2] = biological target: T2, cynomolgus GITR, membrane bound (on …); assay: FACS on activated cynomolgus T cells
Protocol: as §1

[3] = biological target: T3, recombinant human GITR/Fc (rHGITR/Fc, …); assay: SPR; mAb captured (anti-kappa), rHGITR/Fc analyte
Protocol: Binding of anti-GITR antibodies to soluble GITR was determined by Biacore. […] The capture concentration of the mAb/volume was 2-40 μg/mL (5 μL at 10 μL/min). The antigen association time was 5 minutes at 15 μL/min, the antigen dissociation time was 6 minutes, and regeneration was performed with 50 mM HCl/50 mM NaOH (12 μL each at 100 μL/min).

[4] = biological target: T3, recombinant human GITR/Fc (rHGITR/Fc, …); assay: SPR binning with rHGITR/Fc
Protocol: Each antibody concentration series was divided into two halves. […] Complexes were incubated for 2 hours. 40 μL complexes were injected on the antibody coated surface at a 30 μL/min flow rate. […] The data was analyzed using Microsoft Excel where the concentration series of antibodies were plotted against the corresponding response unit to obtain titration curves.

[5] = biological target: T1, human GITR, membrane bound (on …); assay: cell-based or functional assay
mouse GITR = biological target: T4, mouse GITR; assay: stated in the Treg suppression assay with huGITR KI and wildtype mouse T cells
Text: From the previous experiment it was not clear whether the increased Teff proliferation was due to the anti-GITR antibodies acting on Treg and/or Teff cells. To address this question, human GITR “knock-in” (huGITR KI) mice were used. In these mice, the gene encoding mouse GITR, Tnfrsf18, was replaced with the human TNFRSF18 gene, and human GITR is expressed similarly to muGITR in wildtype mice; human GITR is expressed on both Teff and Treg cells with higher levels on the latter.
Treg and Teff cells were sorted based on CD4 and CD25 expression from huGITR KI and WT mice.

[6] = biological target: T1, human GITR, membrane bound (on …); assay: FACS on PHA-activated human CD4+ and CD8+ T cells, anti-HA detection
Text: (§2) The samples were acquired on a FACS Canto Flow Cytometer (BD, San Jose) and analyzed with FlowJo software (Tree Star, Inc, Ashland, Oreg.).

[7] = biological target: T1, human GITR, membrane bound (on …); assay: FACS; pre-bound GITR-L against 0.5 ug/mL 28F3-hIgG1 (competitor) on activated T cells; partial inhibition
Text: as §2

Row | Binder | EC50 [1] [nM] | Kd [3] [nM] | koff [3] [s⁻¹] | kon [3] [M⁻¹ s⁻¹] | other results
1 | 3C3 (antibody, human IgG1, kappa, V domains shown, Hybridoma-derived; also called GITR.3; 3C3-1) VH: QVQLQQWGAGLLKPSETLSLTCAVYGGSFSGYYWTWIRQPPGKGLEWIGKINHSGNTNYNPSLKSRVTISVDTSKNQFSLKLSSVTAADTAVYYCARLGAFDAFDIWGQGTMVTVSS VL: DIQMTQSPSSLSASVGDRVTITCRASQGISSWLAWYQQKPEKAPKSLIYAASSLQSGVPSRFSGSGSGTDFTLTISSLQPEDFATYYCQQYNSYPYTFGQGTKLEIKR | 0.0492 |  |  |  | binding result [2]: no binding
2 | 2G6 (antibody, human IgG2, kappa, V domains shown, Hybridoma-derived human antibody) VH: QVQLVESGGGVVQPGGSLRLSCAASGFILSDYGMHWVRQAPGKGLEWVTVIWYDGSNKFYVDSVKGRFTISRDNSKNTLYLQMNSLRVEDTAVYYCARGGRLATGHFYYVMDVWGQGTTVTVSS VL: DIQMTQSPSSLSASVGDRVTITCRASQGISSWLAWYQQKPEKAPKSLIYAASSLQSGVPSRFSGSGSGTDFTLTISSLQPEDFATYYCQQYNSYPYTFGQGTKLEIKR |  | 12 | 0.00147 | 123000 | 
3 | 18E10 (antibody, human IgG2, kappa, V domains shown, Hybridoma-derived human antibody) VH: QVQLVESGGGVVQPGRSLRLSCAASGFTFSSYGMHWVRQAPGKGLEWVAVIWYAGSNKYYADSVKGRFTISRDNSKNTLYLQMNSLRAEDTAVYYCARGGRIAVAFYYSMDVWGQGTTVTVSS VL: DIQMTQSPSSLSASVGDRVTITCRASQGISSWLAWYQQKPEKAPKSLIYAASSLQSGVPSRFSGSGSGTDFTLTISSLQPEDFATYYCQQYNSYPYTFGQGTKLEIKR | 0.146 | 13.3 | 0.00241 | 182000 | EC50 [2]: 0.913 nM
4 | 19D3 (antibody, human IgG2, kappa, V domains shown, Hybridoma-derived human antibody) VH: QVQLVESGGGVVQPGRSLRLSCAASGFTFSSYGFHWVRQAPGKGLEWVAVIWYAGSNKFYADSVKGRFTISRDNSKNTLYLQMNSLRAEDTAVYYCARGGQLDYYYYYVMDVWGQGTTVTVSS VL: DIQMTQSPSSLSASVGDRVTITCRASQGISSWLAWYQQKPEKAPKSLIYAASSLQSGVPSRFSGSGSGTDFTLTISSLQPEDFATYYCQQYNSYPYTFGQGTKLEIKR | 0.363 | 16.3 | 0.0045 | 276000 | 
5 | 14E3 (antibody, V domains shown, Hybridoma-derived human antibody) VH: QVQLQQWGAGLLKPSETLSLTCAVYGGSFSGYYWSWIRQPPGKGLEWIGEINHSGNTYYNPSLKSRVTISVDTSKNQLSLKLSSVTAADTAVYYCARFGSNDAFDIWGQGTMVTVSS VL: DIQMTQSPSSLSASVGDRVTITCRASQGISSWLAWYQQKPEKAPKSLIYAASSLQSGVPSRFSGSGSGTDFTLTISSLQPEDFATYYCQQYNSYPPTFGQGTKVEIKR |  |  |  |  | binding result [4]: binds
6 | 28F3 (antibody, human IgG2, kappa, also called 13H2; 28F3 (IgG2)) heavy: QVQLVESGGGVVQPGRSLRLSCAASGFTFSSYGMHWVRQAPGKGLEWVAVIWYEGSNKYYADSVKGRFTISRDNSKNTLYLQMNSLRAEDTAVYYCARGGSMVRGDYYYGMDVWGQGTTVTVSSASTKGPSVFPLAPCSRSTSESTAALGCLVKDYFPEPVTVSWNSGALTSGVHTFPAVLQSSGLYSLSSVVTVPSSNFGTQTYTCNVDHKPSNTKVDKTVERKCCVECPPCPAPPVAGPSVFLFPPKPKDTLMISRTPEVTCVVVDVSHEDPEVQFNWYVDGVEVHNAKTKPREEQFNSTFRVVSVLTVVHQDWLNGKEYKCKVSNKGLPAPIEKTISKTKGQPREPQVYTLPPSREEMTKNQVSLTCLVKGFYPSDIAVEWESNGQPENNYKTTPPMLDSDGSFFLYSKLTVDKSRWQQGNVFSCSVMHEALHNHYTQKSLSLSPGK light: not shown | 0.192 | 14.8 | 0.00589 | 397000 | NFKB signaling (phospho-p65) EC50, CD4+ T cells [5]: 12.8 nM; NFKB signaling (phospho-p65) EC50, CD8+ T cells [5]: 9 nM; NFKB signaling (phospho-p65) Emax, CD4+ T cells [5]: 69%; NFKB signaling (phospho-p65) Emax, CD8+ T cells [5]: 85%; EC50 [2]: 1.04 nM; binding result (mouse GITR): no binding
7 | 6G10 (antibody, human IgG2, kappa, V domains shown, Hybridoma-derived human antibody) VH: not shown VL: AIQLTQSPSSLSASVGDRVTITCRASQGISSALAWYQQKPGKAPKLLIYDASSLESGVPSRFSGSGSGTDFTLTISSLQPEDFATYYCQQFNSYPYTFGQGTKLEIKR |  | 1.87 | 0.000715 | 383000 | 
8 | 8A6 (antibody, human IgG2, kappa, V domains shown, Hybridoma-derived human antibody) VH: QVQLVESGGGVVQPGRSLRLSCTASGFTFSSYGMQWVRQAPGKGLEWVAVIWYEGSNKYYADSVKGRFTISRENSKNTLYLQMNSLRAEDTAVYYCARGGLMVRGLFYYGMDVWGQGTTVTVSS VL: AIQLTQSPSSLSASVGDRVTITCRASQGISSALAWYQQKPGKAPKFLIYDASSLESGVPSRFSGSGSGTDFTLTISSLQPEDFATYYCQQFNSYPYTFGQGTKLEIKR |  |  |  |  | binding result [4]: binds
9 | GITR.6.G2.G1f (antibody, human IgG2) heavy: not shown VL: AIQLTQSPSSLSASVGDRVTITCRASQGISSALAWYQQKPGKAPKLLIYDASSLESGVPSRFSGSGSGTDFTLTISSLQPEDFATYYCQQFNSYPYTFGQGTKLEIK |  |  |  |  | NFKB signaling (phospho-p65) EC50, CD4+ T cells [5]: 9 nM; NFKB signaling (phospho-p65) EC50, CD8+ T cells [5]: 3.77 nM; NFKB signaling (phospho-p65) Emax, CD4+ T cells [5]: 100%; NFKB signaling (phospho-p65) Emax, CD8+ T cells [5]: 92%
10 | recombinant human GITR ligand trimer (R&D Systems 6987-GL) (ligand, Bought soluble trimer, detected through an HA tag; also called rhGITR-L; hGITR-L trimer) LQLETAKEPCMAKFGPLPSKWQMASSEPPCVNKVSDWKLEILQNGLYLIYGQVAPNANYNDVAPFEVRLYKNKDMIQTLTNKSKIQNVGGTYELHVGDTIDLIFNSEHQVLKNNTYWGIILLANPQFIS |  |  |  |  | EC50 [6]: 16 ng/mL; IC50 [7]: 2.4 ng/mL

Reference: US20220175921A1 (Bristol-Myers Squibb, published 2022)
